Experimental data: paper PMC2756588

T1: Abp1, P15891
T1 sequence (P15891 535-592, looked up): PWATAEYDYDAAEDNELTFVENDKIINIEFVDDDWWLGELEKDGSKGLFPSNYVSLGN

T2: Bbc1, P47068
T2 sequence (P47068 1-78, looked up): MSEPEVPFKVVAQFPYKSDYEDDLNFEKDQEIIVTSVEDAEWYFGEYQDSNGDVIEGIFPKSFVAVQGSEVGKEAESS

T3: Boi1, P38041
T3 sequence (P38041 1-86, looked up): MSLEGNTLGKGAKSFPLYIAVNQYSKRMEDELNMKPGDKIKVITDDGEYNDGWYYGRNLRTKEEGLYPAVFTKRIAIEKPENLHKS

T4: Boi2, P39969
T4 sequence (P39969 32-116, looked up): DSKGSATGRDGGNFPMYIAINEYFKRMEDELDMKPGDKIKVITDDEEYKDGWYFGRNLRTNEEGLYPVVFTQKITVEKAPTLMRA

T5: Bud14, P27637
T5 sequence (P27637 247-328, looked up): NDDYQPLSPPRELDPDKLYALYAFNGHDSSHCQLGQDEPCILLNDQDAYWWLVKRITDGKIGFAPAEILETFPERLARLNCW

T6: Bzz1-1, P38822
T6 sequence (P38822 478-572, looked up): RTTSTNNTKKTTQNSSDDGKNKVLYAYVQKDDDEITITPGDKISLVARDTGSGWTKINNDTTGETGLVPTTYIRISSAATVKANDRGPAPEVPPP

T7: Bzz1-2, P38822
T7 sequence (P38822 568-633, looked up): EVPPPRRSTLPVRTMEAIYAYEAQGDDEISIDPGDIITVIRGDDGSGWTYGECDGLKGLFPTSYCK

T8: Cdc25, P04821
T8 sequence (P04821 50-136, looked up): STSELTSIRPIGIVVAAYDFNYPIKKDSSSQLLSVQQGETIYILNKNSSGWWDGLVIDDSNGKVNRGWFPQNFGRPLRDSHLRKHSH

T9: Cyk3, Q07533
T9 sequence (Q07533 1-83, looked up): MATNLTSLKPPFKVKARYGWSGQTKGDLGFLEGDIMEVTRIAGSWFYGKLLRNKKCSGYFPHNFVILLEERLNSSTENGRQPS

T10: Fus1, P11710
T10 sequence (P11710 432-512, looked up): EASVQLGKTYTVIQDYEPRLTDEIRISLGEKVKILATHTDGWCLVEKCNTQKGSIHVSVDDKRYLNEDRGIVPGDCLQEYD

T11: Hof1, Q05080
T11 sequence (Q05080 590-669, looked up): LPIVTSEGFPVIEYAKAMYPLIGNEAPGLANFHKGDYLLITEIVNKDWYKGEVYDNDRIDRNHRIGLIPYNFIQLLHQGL

T12: Hse1, P38753
T12 sequence (P38753 208-285, looked up): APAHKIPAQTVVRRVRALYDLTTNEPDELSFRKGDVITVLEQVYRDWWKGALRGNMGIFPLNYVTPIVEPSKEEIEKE

T13: Lsb1, P53281
T13 sequence (P53281 45-122, looked up): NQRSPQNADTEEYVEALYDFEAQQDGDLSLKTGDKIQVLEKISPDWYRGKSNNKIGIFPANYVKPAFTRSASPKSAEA

T14: Lsb3, P43603
T14 sequence (P43603 385-451, looked up): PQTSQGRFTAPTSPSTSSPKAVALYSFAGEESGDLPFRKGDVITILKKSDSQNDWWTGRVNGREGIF

T15: Lsb4, P32793
T15 sequence (P32793 402-468, looked up): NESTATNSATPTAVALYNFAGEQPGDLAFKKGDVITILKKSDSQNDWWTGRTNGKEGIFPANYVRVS

T16: Myo5, Q04439
T16 sequence (Q04439 1072-1160, looked up): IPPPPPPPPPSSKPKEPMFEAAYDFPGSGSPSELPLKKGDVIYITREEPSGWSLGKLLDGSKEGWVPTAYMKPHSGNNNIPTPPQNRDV

T17: Nbp2, Q12163
T17 sequence (Q12163 103-180, looked up): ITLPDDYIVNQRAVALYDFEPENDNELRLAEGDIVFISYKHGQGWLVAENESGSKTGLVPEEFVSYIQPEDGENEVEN

T18: Pex13, P80667
T18 sequence (P80667 295-386, looked up): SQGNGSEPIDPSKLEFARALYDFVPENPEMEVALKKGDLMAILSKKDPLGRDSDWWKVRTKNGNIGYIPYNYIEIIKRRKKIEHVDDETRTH

T19: Pin3, Q06449
T19 sequence (Q06449 53-122, looked up): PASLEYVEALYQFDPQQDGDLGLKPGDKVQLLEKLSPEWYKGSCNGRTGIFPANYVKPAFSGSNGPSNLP

T20: Sla1-2, P32790
T20 sequence (P32790 60-140, looked up): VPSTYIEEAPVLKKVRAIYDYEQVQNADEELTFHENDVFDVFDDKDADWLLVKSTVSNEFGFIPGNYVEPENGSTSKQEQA

T21: Sla1-3, P32790
T21 sequence (P32790 344-424, looked up): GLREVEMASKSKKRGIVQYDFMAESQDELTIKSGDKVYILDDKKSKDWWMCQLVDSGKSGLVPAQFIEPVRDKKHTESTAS


Experiments:
Experiment in all cases: SPOT array
Abp1, P15891 = molecular target: T1, Abp1, P15891; settings: median of control spots 935
Bbc1, P47068 = molecular target: T2, Bbc1, P47068; settings: median of control spots 796
Bem1-1, P29366 = settings: median of control spots 4282
Bem1-1, P29366, sequence (P29366 55-141): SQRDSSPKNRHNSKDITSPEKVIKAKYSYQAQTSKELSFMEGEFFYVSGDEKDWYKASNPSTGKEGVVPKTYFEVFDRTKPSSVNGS

Bem1-2, P29366 = settings: median of control spots 4347
Bem1-2, P29366, sequence (P29366 139-227): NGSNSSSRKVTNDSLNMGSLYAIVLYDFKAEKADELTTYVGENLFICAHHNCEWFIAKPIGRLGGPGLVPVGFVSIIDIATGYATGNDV

Boi1, P38041 = molecular target: T3, Boi1, P38041; settings: median of control spots 1162
Boi2, P39969 = molecular target: T4, Boi2, P39969; settings: median of control spots 1161
Bud14, P27637 = molecular target: T5, Bud14, P27637; settings: median of control spots 956
Bzz1-1, P38822 = molecular target: T6, Bzz1-1, P38822; settings: median of control spots 4446
Bzz1-2, P38822 = molecular target: T7, Bzz1-2, P38822; settings: median of control spots 4538
Cdc25, P04821 = molecular target: T8, Cdc25, P04821; settings: median of control spots 969
Cyk3, Q07533 = molecular target: T9, Cyk3, Q07533; settings: median of control spots 1451
Fus1, P11710 = molecular target: T10, Fus1, P11710; settings: median of control spots 1200
GST = settings: median of control spots 978
Hof1, Q05080 = molecular target: T11, Hof1, Q05080; settings: median of control spots 4086
Hse1, P38753 = molecular target: T12, Hse1, P38753; settings: median of control spots 1727
Lsb1, P53281 = molecular target: T13, Lsb1, P53281; settings: median of control spots 388
Lsb3, P43603 = molecular target: T14, Lsb3, P43603; settings: median of control spots 406
Lsb4, P32793 = molecular target: T15, Lsb4, P32793; settings: median of control spots 397
Myo3, P36006 = settings: median of control spots 468
Myo5, Q04439 = molecular target: T16, Myo5, Q04439; settings: median of control spots 471
Nbp2, Q12163 = molecular target: T17, Nbp2, Q12163; settings: median of control spots 357
Pex13, P80667 = molecular target: T18, Pex13, P80667; settings: median of control spots 1341
Pin3, Q06449 = molecular target: T19, Pin3, Q06449; settings: median of control spots 2171
Rvs167, P39743 = settings: median of control spots 2707
Rvs167, P39743, sequence (P39743 419-482): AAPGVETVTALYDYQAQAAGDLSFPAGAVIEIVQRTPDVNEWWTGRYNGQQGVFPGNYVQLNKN

Sho1, P40073 = settings: median of control spots 1148
Sho1, P40073, sequence (P40073 287-367): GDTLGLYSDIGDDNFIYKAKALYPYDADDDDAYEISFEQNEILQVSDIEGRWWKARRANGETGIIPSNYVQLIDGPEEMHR

Sla1-2, P32790 = molecular target: T20, Sla1-2, P32790; settings: median of control spots 712
Sla1-3, P32790 = molecular target: T21, Sla1-3, P32790; settings: median of control spots 5475

| Binder | SPOT intensity (Abp1, P15891) | SPOT intensity (Bbc1, P47068) | SPOT intensity (Bem1-1, P29366) | SPOT intensity (Bem1-2, P29366) | SPOT intensity (Boi1, P38041) | SPOT intensity (Boi2, P39969) | SPOT intensity (Bud14, P27637) | SPOT intensity (Bzz1-1, P38822) | SPOT intensity (Bzz1-2, P38822) | SPOT intensity (Cdc25, P04821) | SPOT intensity (Cyk3, Q07533) | SPOT intensity (Fus1, P11710) | SPOT intensity (GST) | SPOT intensity (Hof1, Q05080) | SPOT intensity (Hse1, P38753) | SPOT intensity (Lsb1, P53281) | SPOT intensity (Lsb3, P43603) | SPOT intensity (Lsb4, P32793) | SPOT intensity (Myo3, P36006) | SPOT intensity (Myo5, Q04439) | also measured |
| --- | --- | --- | --- | --- | --- | --- | --- | --- | --- | --- | --- | --- | --- | --- | --- | --- | --- | --- | --- | --- | --- |
| EAEEAAPQLPSRSSA | 0 | 0 | 0 | 0 | 1 | 1 | 0 | 2 | 2 | 2 | 0 | 1 | 0 | 0 | 0 | 62 | 956 | 529 | 0 | 0 | SPOT intensity (Nbp2, Q12163): 0; SPOT intensity (Pex13, P80667): 6; SPOT intensity (Pin3, Q06449): 2; SPOT intensity (Rvs167, P39743): 75; SPOT intensity (Sho1, P40073): 0; SPOT intensity (Sla1-2, P32790): 0; SPOT intensity (Sla1-3, P32790): 2 |
| APPPPPRRATPEKKP | 77 | 14 | 0 | 3 | 0 | 1 | 0 | 1 | 0 | 3 | 1 | 0 | 1 | 0 | 0 | 30 | 432 | 424 | 92 | 14 | SPOT intensity (Nbp2, Q12163): 0; SPOT intensity (Pex13, P80667): 68; SPOT intensity (Pin3, Q06449): 8; SPOT intensity (Rvs167, P39743): 525; SPOT intensity (Sho1, P40073): 21; SPOT intensity (Sla1-2, P32790): 0; SPOT intensity (Sla1-3, P32790): 0 |
| EQEEIAPSLPSRNSI | 0 | 0 | 1 | 1 | 0 | 1 | 0 | 0 | 1 | 1 | 1 | 0 | 2 | 2 | 0 | 20 | 998 | 517 | 0 | 0 | SPOT intensity (Nbp2, Q12163): 0; SPOT intensity (Pex13, P80667): 417; SPOT intensity (Pin3, Q06449): 0; SPOT intensity (Rvs167, P39743): 31; SPOT intensity (Sho1, P40073): 0; SPOT intensity (Sla1-2, P32790): 0; SPOT intensity (Sla1-3, P32790): 0 |
| SSAAPPPPPRRATPE | 23 | 8 | 1 | 1 | 1 | 0 | 0 | 0 | 1 | 2 | 0 | 0 | 1 | 1 | 0 | 266 | 706 | 965 | 99 | 18 | SPOT intensity (Nbp2, Q12163): 0; SPOT intensity (Pex13, P80667): 58; SPOT intensity (Pin3, Q06449): 5; SPOT intensity (Rvs167, P39743): 1790; SPOT intensity (Sho1, P40073): 3; SPOT intensity (Sla1-2, P32790): 0; SPOT intensity (Sla1-3, P32790): 0 |

More lines, main results first:

| SPOT intensity (Abp1, P15891) | SPOT intensity (Bbc1, P47068) | SPOT intensity (Bem1-1, P29366) | SPOT intensity (Bem1-2, P29366) | SPOT intensity (Boi1, P38041) | SPOT intensity (Boi2, P39969) | SPOT intensity (Bud14, P27637) | SPOT intensity (Bzz1-1, P38822) | SPOT intensity (Bzz1-2, P38822) | SPOT intensity (Cdc25, P04821) | SPOT intensity (Cyk3, Q07533) | SPOT intensity (Fus1, P11710) | SPOT intensity (GST) | SPOT intensity (Hof1, Q05080) | SPOT intensity (Hse1, P38753) | SPOT intensity (Lsb1, P53281) | SPOT intensity (Lsb3, P43603) | SPOT intensity (Lsb4, P32793) | SPOT intensity (Myo3, P36006) | SPOT intensity (Myo5, Q04439) | Binder | also measured |
| --- | --- | --- | --- | --- | --- | --- | --- | --- | --- | --- | --- | --- | --- | --- | --- | --- | --- | --- | --- | --- | --- |
| 9 | 34 | 0 | 1 | 0 | 0 | 1 | 0 | 0 | 0 | 1 | 0 | 1 | 3 | 3 | 1 | 46 | 16 | 0 | 0 | QGYPRQPQRPQRYHP | SPOT intensity (Nbp2, Q12163): 0; SPOT intensity (Pex13, P80667): 7; SPOT intensity (Pin3, Q06449): 2; SPOT intensity (Rvs167, P39743): 0; SPOT intensity (Sho1, P40073): 0; SPOT intensity (Sla1-2, P32790): 0; SPOT intensity (Sla1-3, P32790): 0 |
| 68 | 4 | 0 | 0 | 0 | 0 | 0 | 0 | 0 | 0 | 0 | 0 | 0 | 1 | 1 | 0 | 167 | 107 | 0 | 0 | LASNSPPVYPKRIRH | SPOT intensity (Nbp2, Q12163): 0; SPOT intensity (Pex13, P80667): 3; SPOT intensity (Pin3, Q06449): 0; SPOT intensity (Rvs167, P39743): 0; SPOT intensity (Sho1, P40073): 7; SPOT intensity (Sla1-2, P32790): 0; SPOT intensity (Sla1-3, P32790): 0 |
